The record followed here is paper PMC5892457, “Characterisation of novel biomass degradation enzymes from the genome of Cellulomonas fimi” (Enzyme and Microbial Technology, 2018).

Holding throughout (assay): purified protein
Common to all, as to type: biochemical, Cellulomonas fimi

Substrate in series [1]: O=[N+]([O-])c1ccc(O[C@@H]2O[C@@H](CO)[C@H](O)[C@H]2O)cc1
As to conditions: pH 6.5, 45 °C, partially purified enzyme.

Substrate in series [2]: O=[N+]([O-])c1ccccc1O[C@@H]1O[C@H](CO)[C@@H](O[C@@H]2O[C@H](CO)[C@@H](O)[C@H](O)[C@H]2O)[C@H](O)[C@H]1O
As to conditions: pH 6.0, 60 °C, partially purified enzyme, printed value differs between text and Table 3.

Substrate in series [3]: O=[N+]([O-])c1ccccc1O[C@@H]1OC[C@@H](O)[C@H](O)[C@H]1O
As to conditions: pH 6.0, 45 °C, partially purified enzyme, points at 20 mM and above excluded (substrate precipitation).

B1: AfsB (Cellulomonas fimi ATCC 484) (protein)
chain: MFPVRLTLDPAFRVGPVRRRTFGSFVEHLGRCVYTGIHDPGHPTADADGFRKDVLELTRELGVSTVRYPGGNFVSGYRWEDGVGPVEQRPTRLDLAWHSLEPNTVGVDEFMRWAALAEVEPMMAVNLGTRGVQEALDLLDYCNGTAPTYWADQRRANGATDPYAIKMWCLGNEMDGPWQIGSKTAHEYGRLAAETGRAMKMVDPTLELVACGSSGVVMPTFGEWERIVLSEAYEQVDYVSAHAYYWEEDGDLGSFLASATDMDHFVESVTATADAVRAHKKVSKRIHISFDEWNVWYQKRAESRPPTGDDWPVAPVLLEDRYNVADAVVVGNLLISLLRHTDRVHAASLAQLVNVIAPIMTEPGGRSWKQTIFHPFAQASRYAAGDVLQVAIDAPTYETARYGDAALVDAVATRDPETGATTLFAVNRSLTEPALLEVDTRALPGLRVLDASTLSNPDHTWAATADDDTSVAPRANTTAEIRDGRLTVQVPPVSWNVVRLGA
notes: full ORF as BioBrick, E. coli JM109, untagged; partially purified (DEAE-Sepharose, phenyl-agarose)
Take B1: the Km – broadly, the substrate concentration at which the rate is half of its maximum – in the series “purified protein [1]” is recorded as 6.8 mM.

B2: XynF (Cellulomonas fimi ATCC 484) (protein)
chain: AGSTLQAAAAESGRYFGTAIAASRLSDGTYTGIANREFNMITAENEMKMDATEPNRGQFSYSNGDRIVNWARQNGKQVRGHALAWHSQQPGWMQNLSGTDLRNAMLNHVTQVATYYRGKIYAWDVVNEAYADGSSGARRDSNLQRTGNDWIEAAFRAARAADPNAKLCYNDYNTDNWSHAKTQGVYNMVKDFKARGVPIDCVGFQAHFNSGNPVPSNYHTTLQNFADLGVDVQITELDIEGSGSSQAQQYQGVVQACLAVSRCTGITVWGVRDTDSWRASGTPLLFDGSGNKKAAYTSVLNALNAGGTTTPTPNPTNPTPTPTPTNPGGGSPSCTATYSEGQKWGDRFNGTVTIRATTNISSWQSTVTVRSPQKIIATWNGSPTWDSSGNVMTMRPSGSGALAAGQSTSFGFTVQHNGNWTWPSVTCAAS
notes: ORF with TAT signal peptide and CBMII as BioBrick, E. coli JM109, untagged; partially purified (DEAE-, CM-Sepharose)
On to B2, for which, in “purified protein [2]”, the Km worked out at 58 mM.

B3: BxyF (Cellulomonas fimi ATCC 484) (protein)
chain: MTRRLVPELEVRRHLVEDYADFTQIPEAVVARWKAPFGPPEDWDLTVVDHTVPGPHGPVPVRVYTPVGTPPDGGRACLVWMHGGAFSWGDLDMAEAHEVARGVAGRADVVVVSVDYRLCPVMPELGGTVGDRVDERGEPVRFPVPQDDCAAVLDAVRADPARFGVDAARVAIGGASAGAFLAAAVTLRAVEDGRAPWQTLLVYPMLHPRVPALGTELAEAVEAAPRALQLPAWMVEATNRTVLGREPEPSDDEAFPGLAARLEGFPPTYVENGELDAFRASGERFSTRLRAAGVDVVEVTRSGVPHGHLDWVGFGPARDTLDALAQRLRAPSAADRQALDELRVDGAPASDAPLHHVWNRCVGAGRANEALRADWQAHLREAVDVLGVRSVRFHGLFHDDMFVYRSTYGGGFAPPEVLPEPLITFSYVDMVFDALLDAGARPFVELGFMPRELATQTETLFWWKAHCSPPTDMAEWVRLVSETVRHWIERYGLDEVRQWRFEVWNEPNLVPHFWTGTRTEYFALYEATARALKAIDLQLRVGGPSTSVFVPDARYAGETYDHAAEFATGRAPDPDALDWQPVWVRELVDYCAERDLPLDFLSTHLYPTDYAADGTGSGVTAIHRHVDATEQDLRLLQELIAASPYPDAELHITEWSSSPSSRDRTHDTLFAATYITRAFLKGAALADSISYWTFTDIFEEGGAGLGPFHGGFGFVNEQGIHKPTFHAVAMLNRLGDRVVHQDEHGIITRSSGDGHVSAVFLNYPAEMGTRGVEQHDTYAAARAYREIGTARRVRRTVAGLEPGTVFQVEVLDWEHGNAAEAWHQMGEPLNLTRAQTTELKTVADDLRRWTITVPDSGVLEIDLDLPAWAVASVAPVTPTPSPTTNDAPSPTSSRQG
notes: as for B1
As to B3, in “purified protein [3]”, the Michaelis constant (Km) amounted to 1.7 mM.
